The values below come from paper PMC11393077.

The assay has as its target CTD peptide containing two heptad repeats with one Ser5 phosphorylation site. In words: fluorescence polarisation. A general note: In fluorescence polarisation assays a small probe gives low polarisation when free and higher when bound to something large.

What is called Kd is the free concentration of one partner at which half of the binding sites on the other are occupied at equilibrium, for simple one-to-one binding. Lower therefore signals a tighter complex. “Human prolyl isomerase 1 (PIN1) (from UniProt Q13526 1-163) (enzyme)” came in with a Kd of 21 µM.
